Target: the molecule itself
Test: SEC

Protein | binding result
W37only single-Trp mutant of MgtE (natural protein, Thermus thermophilus, UniProt Q5SMG8 1-450, looked up) MEEKLAVSLQEALQEGDTRALREVLEEIHPQDLLALWDELKGEHRYVVLTLLPKAKAAEVLSHLSPEEQAEYLKTLPPFRLREILEELSLDDLADALQAVRKEDPAYFQRLKDLLDPRTRAEVEALARYEEDEAGGLMTPEYVAVREGMTVEEVLRFLRRAAPDAETIYYIYVVDEKGRLKGVLSLRDLIVADPRTRVAEIMNPKVVYVRTDTDQEEVARLMADYDFTVLPVVDEEGRLVGIVTVDDVLDVLEAEATEDIHKLGAVDVPDLVYSEAGPVALFLARVRFLVILILTGMVTSSILQGFESVLEAVTALAFYVPVLLGTGGNTGNQSATLIIRALATRDLDLRDFRRVFLKEMGVGLLLGLTLSFLLVGKVYFDGHPLLLPVVGVSLVLIVFFANLVGAMLPFLLRRLGVDPALVSNPLVATLSDVTGLLIYLSVARLLLEAV | binds
W79only single-Trp mutant of MgtE (natural protein, Thermus thermophilus, UniProt Q5SMG8 1-450, looked up) MEEKLAVSLQEALQEGDTRALREVLEEIHPQDLLALFDELKGEHRYVVLTLLPKAKAAEVLSHLSPEEQAEYLKTLPPWRLREILEELSLDDLADALQAVRKEDPAYFQRLKDLLDPRTRAEVEALARYEEDEAGGLMTPEYVAVREGMTVEEVLRFLRRAAPDAETIYYIYVVDEKGRLKGVLSLRDLIVADPRTRVAEIMNPKVVYVRTDTDQEEVARLMADYDFTVLPVVDEEGRLVGIVTVDDVLDVLEAEATEDIHKLGAVDVPDLVYSEAGPVALFLARVRFLVILILTGMVTSSILQGFESVLEAVTALAFYVPVLLGTGGNTGNQSATLIIRALATRDLDLRDFRRVFLKEMGVGLLLGLTLSFLLVGKVYFDGHPLLLPVVGVSLVLIVFFANLVGAMLPFLLRRLGVDPALVSNPLVATLSDVTGLLIYLSVARLLLEAV | binds
W282only single-Trp mutant of MgtE (natural protein, Thermus thermophilus, UniProt Q5SMG8 1-450, looked up) MEEKLAVSLQEALQEGDTRALREVLEEIHPQDLLALFDELKGEHRYVVLTLLPKAKAAEVLSHLSPEEQAEYLKTLPPFRLREILEELSLDDLADALQAVRKEDPAYFQRLKDLLDPRTRAEVEALARYEEDEAGGLMTPEYVAVREGMTVEEVLRFLRRAAPDAETIYYIYVVDEKGRLKGVLSLRDLIVADPRTRVAEIMNPKVVYVRTDTDQEEVARLMADYDFTVLPVVDEEGRLVGIVTVDDVLDVLEAEATEDIHKLGAVDVPDLVYSEAGPVALWLARVRFLVILILTGMVTSSILQGFESVLEAVTALAFYVPVLLGTGGNTGNQSATLIIRALATRDLDLRDFRRVFLKEMGVGLLLGLTLSFLLVGKVYFDGHPLLLPVVGVSLVLIVFFANLVGAMLPFLLRRLGVDPALVSNPLVATLSDVTGLLIYLSVARLLLEAV | binds
W288only single-Trp mutant of MgtE (natural protein, Thermus thermophilus, UniProt Q5SMG8 1-450, looked up) MEEKLAVSLQEALQEGDTRALREVLEEIHPQDLLALFDELKGEHRYVVLTLLPKAKAAEVLSHLSPEEQAEYLKTLPPFRLREILEELSLDDLADALQAVRKEDPAYFQRLKDLLDPRTRAEVEALARYEEDEAGGLMTPEYVAVREGMTVEEVLRFLRRAAPDAETIYYIYVVDEKGRLKGVLSLRDLIVADPRTRVAEIMNPKVVYVRTDTDQEEVARLMADYDFTVLPVVDEEGRLVGIVTVDDVLDVLEAEATEDIHKLGAVDVPDLVYSEAGPVALFLARVRWLVILILTGMVTSSILQGFESVLEAVTALAFYVPVLLGTGGNTGNQSATLIIRALATRDLDLRDFRRVFLKEMGVGLLLGLTLSFLLVGKVYFDGHPLLLPVVGVSLVLIVFFANLVGAMLPFLLRRLGVDPALVSNPLVATLSDVTGLLIYLSVARLLLEAV | binds
W352only single-Trp mutant of MgtE (natural protein, Thermus thermophilus, UniProt Q5SMG8 1-450, looked up) MEEKLAVSLQEALQEGDTRALREVLEEIHPQDLLALFDELKGEHRYVVLTLLPKAKAAEVLSHLSPEEQAEYLKTLPPFRLREILEELSLDDLADALQAVRKEDPAYFQRLKDLLDPRTRAEVEALARYEEDEAGGLMTPEYVAVREGMTVEEVLRFLRRAAPDAETIYYIYVVDEKGRLKGVLSLRDLIVADPRTRVAEIMNPKVVYVRTDTDQEEVARLMADYDFTVLPVVDEEGRLVGIVTVDDVLDVLEAEATEDIHKLGAVDVPDLVYSEAGPVALFLARVRFLVILILTGMVTSSILQGFESVLEAVTALAFYVPVLLGTGGNTGNQSATLIIRALATRDLDLRDWRRVFLKEMGVGLLLGLTLSFLLVGKVYFDGHPLLLPVVGVSLVLIVFFANLVGAMLPFLLRRLGVDPALVSNPLVATLSDVTGLLIYLSVARLLLEAV | binds
W380only single-Trp mutant of MgtE (natural protein, Thermus thermophilus, UniProt Q5SMG8 1-450, looked up) MEEKLAVSLQEALQEGDTRALREVLEEIHPQDLLALFDELKGEHRYVVLTLLPKAKAAEVLSHLSPEEQAEYLKTLPPFRLREILEELSLDDLADALQAVRKEDPAYFQRLKDLLDPRTRAEVEALARYEEDEAGGLMTPEYVAVREGMTVEEVLRFLRRAAPDAETIYYIYVVDEKGRLKGVLSLRDLIVADPRTRVAEIMNPKVVYVRTDTDQEEVARLMADYDFTVLPVVDEEGRLVGIVTVDDVLDVLEAEATEDIHKLGAVDVPDLVYSEAGPVALFLARVRFLVILILTGMVTSSILQGFESVLEAVTALAFYVPVLLGTGGNTGNQSATLIIRALATRDLDLRDFRRVFLKEMGVGLLLGLTLSFLLVGKVYWDGHPLLLPVVGVSLVLIVFFANLVGAMLPFLLRRLGVDPALVSNPLVATLSDVTGLLIYLSVARLLLEAV | binds
